Data published in patent publication US20250051443A1 (NATIONAL RESEARCH COUNCIL OF CANADA, published 2025).
Changes are numbered by the printed parent chain. One block for each molecule: values may come before it.

What was measured:
human CD3 [1] = target: T1, human CD3 (human, UniProt P07766 23-207; P09693 23-182; P04234 22-171); assay: flow cytometry, AF488-labeled mAb on CD3+ Jurkat cells
human CD3 [2] = target: T1, human CD3; assay: apparent KD (KDapp), flow cytometry titration on purified primary human T cells
Experimental: The binding characteristics of the purified anti-CD3 mAbs were assessed in titration studies on purified human primary T cells from different donor samples. Fresh ex vivo peripheral blood mononuclear cells (PBMCs) were obtained via density centrifugation over Ficoll-Paque using standard procedures and untouched T cell fractions obtained from PBMCs by negative pan-T cell selection and magnetic cell sorting. Starting from 300 nM concentrations of the anti-CD3 mAbs, eight point binding curves were generated from the resultant mean fluorescence intensity (MFI) values obtained through detection of labelled secondary antibody to bound CD3 in flow cytometry experiments (FIGS. 3A and 3B). Both commercial mouse anti-human CD3 mAb (OKT-3; Biolegend) and an in house generated IgG1 version of OKT-3 were employed as positive controls together with a non-specific mouse IgG serving as a negative binding control. Following curve fit analysis using one-site specific binding with Hill slope, the KDapp (concentration needed to achieve a half-maximum binding at equilibrium) for each mAb was calculated (Table 2).
Eight point binding titrations were performed with the anti-CD3 mAbs starting at either 300 or 100 nM on freshly purified human T cells obtained through negative selection from PBMC fractions. Briefly, 1×10⁵ human T cells (50 μL of staining buffer (SB; PBS/1% BSA/0.01% NaN3) were incubated with graded dilutions of the anti-CD3 mAbs in SB ([…]) for 2 hours at 4° C. in 96 w U-bottom plates, followed by plate washing with SB ([…]). Cell pellets were resuspended with 25 μL of a 0.25 mg/mL solution of the goat (Fab′)₂ anti-mouse IgG (H+L)− APC secondary antibody in SB, incubated at 4° C. (30 min.), washed 1× with SB, and resuspended for flow analysis. Recombinant anti-human OKT-3 IgG2b (in house produced) and non-specific mIgG were employed similarly as positive and negative controls respectively. 10K live events were acquired on a BD LSRFortessa flow analyzer and mean fluorescence intensities (MFI) calculated after subtraction of secondary antibody alone values. Using GraphPad Prism software, the data were analyzed using a one site specific binding with Hill slope non-linear regression model to calculate KDapp and BMax values (See Table 2).

human CD3 [3] = target: T1, human CD3; assay: flow cytometry, hybridoma supernatant on CD3+ Jurkat cells
Experimental: Cells were stained with either negative control mouse IgG (Jackson Immunoresearch cat #115-000-003) or an anti-GFP 3E6 mAb supernatant or tested hybridoma supernatant. Specific binding was reflected by the increase in the mean fluorescent intensity of antibody binding to Jurkat T-cells (FIGS. 1A to 1F, grey histograms) compared to the Jurkat CD3 negative cell line J.RT3-T3.5 (FIGS. 1A to 1F, open histograms). AF488 labeled positive control mAb OKT3 was also analyzed.

human CD3 [4] = target: T1, human CD3; assay: flow competition on Jurkat, 100 nM unlabeled mAb; competitor AF488-OKT-3 mIgG2b 1.5 nM
Experimental: (§1) In order to evaluate whether anti-CD3 monoclonal antibodies bind to the same epitope region, flow cytometry competition experiments on Jurkat cells were performed.
(§2) To that effect, a fixed concentration of the indicated AF488-labeled mAb were incubated with 100 nM of unlabeled monoclonal antibodies to assess if their binding capacity was impaired in presence of unlabeled mAbs. […] The AF488-OKT3 mIgG2b was labeled in-house using AlexaFluor488 protein labelling kit (Invitrogen #A10235) following manufacturer's instruction. The free dye removal step was done using Zeba™ Spin Desalting Columns, 7K MWCO (Thermo Scientific #89890). The final product was analyzed by UPLC-SEC to ensure the integrity of the labeled mAb.

human CD3 [5] = target: T1, human CD3; assay: flow competition on Jurkat, 100 nM unlabeled mAb; competitor AF488-UCHT1 5 nM
Experimental: as §1, §2

human CD3 [6] = target: T1, human CD3; assay: flow competition on Jurkat, 100 nM unlabeled mAb; competitor AF488-SK7 1.5 nM
Experimental: as §1, §2

Cynomolgus CD3 = target: T2, Cynomolgus CD3 (Cynomolgus, UniProt Q95LI5 22-198; Q95LI7 23-181; Q95LI8 22-171); assay: apparent KD (KDapp), flow cytometry titration on cynomolgus HSC-F T cell line
T2 construct: whole, on cells; also called CD3 on Cynomolgus PBMCs; CD3 on HSC-F Cynomolgus T cell line
T2 sequence (Q95LI5 22-198, chain 1 of 3): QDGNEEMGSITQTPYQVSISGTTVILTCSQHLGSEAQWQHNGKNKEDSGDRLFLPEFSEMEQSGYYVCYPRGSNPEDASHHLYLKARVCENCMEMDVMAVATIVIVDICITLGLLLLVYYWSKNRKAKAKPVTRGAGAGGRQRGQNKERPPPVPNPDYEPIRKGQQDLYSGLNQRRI
T2 sequence (Q95LI7 23-181, chain 2 of 3): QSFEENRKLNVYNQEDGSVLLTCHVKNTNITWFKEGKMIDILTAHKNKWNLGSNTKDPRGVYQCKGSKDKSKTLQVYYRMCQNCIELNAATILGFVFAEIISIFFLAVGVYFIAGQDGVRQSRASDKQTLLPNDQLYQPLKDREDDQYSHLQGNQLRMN
T2 sequence (Q95LI8 22-171, chain 3 of 3): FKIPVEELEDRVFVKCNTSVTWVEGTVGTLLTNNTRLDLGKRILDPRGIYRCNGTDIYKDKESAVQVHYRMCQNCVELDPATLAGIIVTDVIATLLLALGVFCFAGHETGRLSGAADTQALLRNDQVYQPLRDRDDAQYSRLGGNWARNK
Experimental: To characterize potential cross-reactivity of the anti-human CD3 mAbs to NHP T cells, dose response flow cytometry titration studies were performed on both freshly obtained Cynomolgus PBMCs (Comparative Medicine and Animal Resources Centre—McGill University) or the Cynomolgus derived T cell line, HSC-F (Non-Human Primate Reagent Resource—NIH). Binding studies on fresh Cynomolgus PBMCs was performed on a subset of anti-CD3 mAbs (FIG. 4) whereas the Herpesvirus saimiri immortalized Cynomolgus T cell line HSC-F was employed for further evaluations (FIGS. 5A to 5C). KDapp values were calculated using a non-linear regression model of one-site binding with Hill slope (GraphPad Prism) and tabulated (Table 3b). Similar KDapp values for anti-CD3 mAb 1E2 obtained from binding to fresh Cynomolgus PBMCs (KDapp=0.28 nM) or the HSC-F T cell line (KDapp=0.39 nM) indicated the HSC-F cell line was a suitable surrogate for ex vivo NHP T cells.
HSC-F T cells obtained from the Non-Human Primate Reagent Resource (NIH) were maintained in culture in RPMI media containing 20% FBS and 40 IU/mL recombinant human IL2. 100K HSC-F cells in logarithmic cell growth were treated with graded doses of the anti-CD3 mAbs starting at 100 nM in staining buffer (SB; PBS/1% BSA/0.01% NaN3) for 2 hours at 4° C. in 96 w V-bottom plates. Following plate washing with SB, the cell pellets were resuspended with 25 μL of goat (Fab′)₂ anti-mouse IgG (H+L)− APC secondary antibody (final 5 μg/mL), incubated for 30 minutes at 4° C., followed by flow cytometry analysis. The commercial NHP cross-reactive SP34.2 anti-CD3 mAb (BD Biosciences), recombinant anti-human OKT-3 IgG2b (in house produced) and non-specific mIgG were employed as controls. 20K live events were acquired on a BD LSRFortessa flow analyzer and mean fluorescence intensities (MFI) calculated after subtraction of secondary antibody alone values. Using GraphPad Prism software, the data were analyzed using a one site specific binding with Hill slope non-linear regression model to calculate KDapp and BMax values (See Table 2).

human CD3 [7] = target: T1, human CD3; assay: flow competition on Jurkat, 100 nM unlabeled mAb; competitor AF488-SP34.2 20 nM
Experimental: as §1, §2

human CD3 [8] = target: T1, human CD3; assay: apparent KD (KDapp), flow cytometry titration on Jurkat cells
Experimental: Unless otherwise stated, all media are kept are 4° C. and all incubations are performed on wet ice. Exponentially growing Jurkat cells were centrifuged and resuspended in complete medium at a cell density of 2×10⁶ cells/mL. Fifty μL/well of cells were distributed in a polypropylene v-bottom 96 well plate and serial 1/3 dilutions of purified mAbs starting at 300 nM were added and incubated for 2 hours. Cells were washed twice by centrifugation and further incubated with a FITC labeled F(ab′)2 goat anti-mouse antibody (Fc specific, #115-096-071, Jackson Immunoresearch, Cedarlane, Burlington, ON) for an hour. Cells were washed and re-suspended in medium containing Propidium iodide to exclude dead cells from analysis. Samples were filtered through a 60 μm nylon mesh filter plate (Millipore, Ireland) to remove cell aggregates. Flow cytometry analyses were performed on 2,000 viable single-cells events gated on forward scattering, side scattering parameters and propidium iodide dye exclusion using a BD-LSRFortessa flow cytometer (Becton-Dickinson Biosciences, CA, USA) and a standard filter set using BD FACSDiva™ acquisition software, according to manufacturer's instructions.

human CD3 [9] = target: T1, human CD3; assay: cell-based or functional assay

MFI (human CD3 [1]): 265 MFI
Molecule: OKT-3 AF488 (antibody)

Kd (human CD3 [2]): 0.22 nM
MFI (human CD3 [3]): 354 MFI
% residual fluorescence of labeled mAb (human CD3 [4]): 79%
% residual fluorescence of labeled mAb (human CD3 [5]): 67%
% residual fluorescence of labeled mAb (human CD3 [6]): 45%
Kd (Cynomolgus CD3): 0.31 nM
% residual fluorescence of labeled mAb (human CD3 [7]): 12%
Kd (human CD3 [8]): 1.3 nM
% max ref. OKT3 (dTomato activation) (human CD3 [9]): 75%
EC50 of dTomato induction (CD69 promoter), Jurkat-CD69-dTomato cells, 24 h (human CD3 [9]): 0.24 µg/mL
B1: F332-7E3 (antibody, mouse IgG2a, V domains shown)
VH: QVQLQQPGAELGKPGTSVKLSCKASGYTFTSYWIHWVKQRPGQGLEWIGNINPNSGSINYNEKFKSKATLTVDKSSSTAYMQLSTLTSEDFAVYYCTRDTSGQYYFDYWGQGTTLTVSS
VL: DIVMSQSPSSLAVSAGEKVTMSCKSSQSLLNSRTRKNYLAWYQQKPGQSPKLLIYWASTRESGVPDRFTGSGSGTDFTLTISSVQAEDLAVYYCKQSYHLRTFGGGTKLEIK
notes: also called F332-7E3-2

Kd (human CD3 [2]): 0.05 nM
MFI (human CD3 [3]): 373 MFI
% residual fluorescence of labeled mAb (human CD3 [4]): 79%
% residual fluorescence of labeled mAb (human CD3 [5]): 72%
% residual fluorescence of labeled mAb (human CD3 [6]): 43%
Kd (Cynomolgus CD3): 0.64 nM
% residual fluorescence of labeled mAb (human CD3 [7]): 8%
Kd (human CD3 [8]): 0.6 nM
% max ref. OKT3 (dTomato activation) (human CD3 [9]): 90%
EC50 of dTomato induction (CD69 promoter), Jurkat-CD69-dTomato cells, 24 h (human CD3 [9]): 0.47 µg/mL
B2: F332-13B4 (antibody, mouse IgG2a, V domains shown)
VH: QVQLQQSGPELVKPGASVKISCKASGYSFTNSYVHWVKQTPGQGLEWIGWIYPGSTNIKYNEKFKGKATLTADTSSSTVYMQLSSLTSEDSAVYFCARDGSYFFDYWGQGTTLTVSS
VL: B1 VL with S22T, H99I
notes: also called F332-13B4-2

Kd (human CD3 [2]): 0.61 nM
MFI (human CD3 [3]): 326 MFI
% residual fluorescence of labeled mAb (human CD3 [4]): 93%
% residual fluorescence of labeled mAb (human CD3 [5]): 73%
% residual fluorescence of labeled mAb (human CD3 [6]): 49%
Kd (Cynomolgus CD3): 0.64 nM
% residual fluorescence of labeled mAb (human CD3 [7]): 10%
Kd (human CD3 [8]): 0.7 nM
% max ref. OKT3 (dTomato activation) (human CD3 [9]): 109%
EC50 of dTomato induction (CD69 promoter), Jurkat-CD69-dTomato cells, 24 h (human CD3 [9]): 0.27 µg/mL
B3: F332-5D4 (antibody, mouse IgG2b, V domains shown)
VH: B1 VH with I34M, S55G, S57D, I58S, K74M, F91S, T100I, Y108F, T114S, S118F
VL: B1 VL with V3L, K18Q, Y55F, E61K, D76Y, S82N, A86T, K95T, H99S
notes: also called F332-5D4-2; F332-5D4 (5F8)
